T1: recombinant human involucrin, P07476
T1 chain: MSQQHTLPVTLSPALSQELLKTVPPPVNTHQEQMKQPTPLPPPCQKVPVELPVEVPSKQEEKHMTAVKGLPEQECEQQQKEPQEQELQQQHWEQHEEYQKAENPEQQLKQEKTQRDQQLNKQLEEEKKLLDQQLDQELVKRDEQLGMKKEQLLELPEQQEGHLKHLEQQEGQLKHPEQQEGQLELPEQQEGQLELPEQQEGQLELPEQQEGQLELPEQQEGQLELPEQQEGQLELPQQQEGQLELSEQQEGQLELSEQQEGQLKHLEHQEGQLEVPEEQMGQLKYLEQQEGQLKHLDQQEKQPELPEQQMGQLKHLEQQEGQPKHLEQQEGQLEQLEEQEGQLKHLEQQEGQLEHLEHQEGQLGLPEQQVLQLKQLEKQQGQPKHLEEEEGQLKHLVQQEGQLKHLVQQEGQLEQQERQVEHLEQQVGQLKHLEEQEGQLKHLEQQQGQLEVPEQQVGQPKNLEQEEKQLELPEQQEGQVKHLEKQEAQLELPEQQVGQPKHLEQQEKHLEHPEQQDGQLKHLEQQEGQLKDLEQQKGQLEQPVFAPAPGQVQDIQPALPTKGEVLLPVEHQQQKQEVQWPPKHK

T2: recombinant full-length human transglutaminase 1 (TGase 1) enzyme (human, UniProt P22735 1-817, constitutively N-myristoylated and S-myristoylated or S-palmitoylated on its amino-terminal 10 kDa portion)
T2 construct: also called TGase I; TGAaseI
T2 sequence (looked up): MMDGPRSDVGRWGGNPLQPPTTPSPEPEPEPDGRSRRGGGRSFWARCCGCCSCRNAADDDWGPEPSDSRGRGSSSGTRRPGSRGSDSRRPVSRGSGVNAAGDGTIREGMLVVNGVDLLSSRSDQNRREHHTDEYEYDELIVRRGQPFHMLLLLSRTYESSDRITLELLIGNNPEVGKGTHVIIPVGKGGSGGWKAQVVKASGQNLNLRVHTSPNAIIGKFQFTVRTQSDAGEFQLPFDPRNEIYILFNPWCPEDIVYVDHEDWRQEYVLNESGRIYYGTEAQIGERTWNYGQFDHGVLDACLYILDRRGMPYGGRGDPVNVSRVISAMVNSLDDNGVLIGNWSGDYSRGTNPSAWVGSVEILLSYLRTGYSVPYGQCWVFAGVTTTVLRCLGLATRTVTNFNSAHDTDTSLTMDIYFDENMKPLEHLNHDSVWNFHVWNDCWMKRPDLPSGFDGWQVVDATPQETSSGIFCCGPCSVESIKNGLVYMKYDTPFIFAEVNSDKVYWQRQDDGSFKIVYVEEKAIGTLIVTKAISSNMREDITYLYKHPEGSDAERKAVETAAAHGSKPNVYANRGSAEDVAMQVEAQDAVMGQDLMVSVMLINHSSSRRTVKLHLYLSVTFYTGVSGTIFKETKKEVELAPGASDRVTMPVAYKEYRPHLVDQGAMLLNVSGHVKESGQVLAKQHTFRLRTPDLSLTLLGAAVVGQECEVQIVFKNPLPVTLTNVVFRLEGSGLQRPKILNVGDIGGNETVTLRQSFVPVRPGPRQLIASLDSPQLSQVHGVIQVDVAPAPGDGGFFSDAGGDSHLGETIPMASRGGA


Key:
[1] = molecular target: recombinant human small proline rich protein 2 (SPR2)
[2] = molecular target: T1, recombinant human involucrin, P07476
[3] = molecular target: T2, recombinant full-length human …; assay: 14C-putrescine labelling of involucrin Gln residues by TGase 1, tryptic peptide sequencing
Experimental: In this first set of experiments, the Gln residues of involucrin that were cross-linked by recombinant TGase 1 were analyzed in the absence of natural insect cell membranes and SLV. ¹⁴C-putrescine incorporation into involucrin was analyzed following trypsin digestion and separation of tryptic peptides on a C18 reverse phase HPLC column. Labeled peptide peaks were dried and identified by sequencing. The PTH derivative of (-glutamylputrescine isopeptide formed in the TGase reaction was identified as a distinct peak in the Porton LP 3000 gas-phase sequencer. (FIG. 7). A total of 40 tryptic peptides were reliably separated, of which 29 (arrows) were labeled by ¹⁴C-putrescine in a reaction with solubilized recombinant TGase 1 and involucrin. (FIG. 8A). Sequencing identified […] labeled Gln residues (Table 2, panel A), with a total of about 20 mol of putrescine incorporated/mol of involucrin (Table 2, panel A). In contrast to the 29 Gln residues found to be involved in the binding of involucrin to soluble TGase 1 in the experiments above, membrane-bound TGase 1 binds to involucrin through five specific Gln residues, as discussed in the following section.

Binder | KM(app) of the protein substrate; 14C-putrescine incorporation by SLV-bound TGase 1 (0% PS) (succinylated casein) [µM] | KM(app) of the protein substrate; 14C-putrescine incorporation by SLV-bound TGase 1 (15% PS) (succinylated casein) [µM] | KM(app) of the protein substrate; 14C-putrescine incorporation by solubilized TGase 1 (succinylated casein) [µM] | KM(app) of the protein substrate; 14C-putrescine incorporation by SLV-bound TGase 1 (0% PS) [1] [µM] | KM(app) of the protein substrate; 14C-putrescine incorporation by SLV-bound TGase 1 (15% PS) [1] [µM] | KM(app) of the protein substrate; 14C-putrescine incorporation by solubilized TGase 1 [1] [µM] | fold increase of KM after attachment of TGase 1 to SLV (0 or 15% PS) [1] | KM(app) of the protein substrate; 14C-putrescine incorporation by SLV-bound TGase 1 (15% PS) [2] [µM] | KM(app) of the protein substrate; 14C-putrescine incorporation by solubilized TGase 1 [2] [µM] | fold decrease of KM, SLV with 15% PS against solubilized TGase 1 and soluble involucrin [2] | kinetic parameters for involucrin as substrate, SLV-bound TGase 1 (0% PS) [2] | binding result [3]
recombinant full-length human transglutaminase 1 (TGase 1) enzyme (protein) MMDGPRSDVGRWGGNPLQPPTTPSPEPEPEPDGRSRRGGGRSFWARCCGCCSCRNAADDDWGPEPSDSRGRGSSSGTRRPGSRGSDSRRPVSRGSGVNAAGDGTIREGMLVVNGVDLLSSRSDQNRREHHTDEYEYDELIVRRGQPFHMLLLLSRTYESSDRITLELLIGNNPEVGKGTHVIIPVGKGGSGGWKAQVVKASGQNLNLRVHTSPNAIIGKFQFTVRTQSDAGEFQLPFDPRNEIYILFNPWCPEDIVYVDHEDWRQEYVLNESGRIYYGTEAQIGERTWNYGQFDHGVLDACLYILDRRGMPYGGRGDPVNVSRVISAMVNSLDDNGVLIGNWSGDYSRGTNPSAWVGSVEILLSYLRTGYSVPYGQCWVFAGVTTTVLRCLGLATRTVTNFNSAHDTDTSLTMDIYFDENMKPLEHLNHDSVWNFHVWNDCWMKRPDLPSGFDGWQVVDATPQETSSGIFCCGPCSVESIKNGLVYMKYDTPFIFAEVNSDKVYWQRQDDGSFKIVYVEEKAIGTLIVTKAISSNMREDITYLYKHPEGSDAERKAVETAAAHGSKPNVYANRGSAEDVAMQVEAQDAVMGQDLMVSVMLINHSSSRRTVKLHLYLSVTFYTGVSGTIFKETKKEVELAPGASDRVTMPVAYKEYRPHLVDQGAMLLNVSGHVKESGQVLAKQHTFRLRTPDLSLTLLGAAVVGQECEVQIVFKNPLPVTLTNVVFRLEGSGLQRPKILNVGDIGGNETVTLRQSFVPVRPGPRQLIASLDSPQLSQVHGVIQVDVAPAPGDGGFFSDAGGDSHLGETIPMASRGGA | 138 | 145 | 61.4 | 25.3 | 22.8 | 13.2 | differed only by about a two-fold increase in KM if the PS content of SLV was 0 or 15% | 2.9 | 114 | an approximately 40-fold decreased KM | The kinetic parameters for involucrin as a substrate were immeasurably low when the SLV were formulated in the absence of PS | –
recombinant human involucrin (other, UniProt P07476 1-585, looked up, Substrate of TGase 1) MSQQHTLPVTLSPALSQELLKTVPPPVNTHQEQMKQPTPLPPPCQKVPVELPVEVPSKQEEKHMTAVKGLPEQECEQQQKEPQEQELQQQHWEQHEEYQKAENPEQQLKQEKTQRDQQLNKQLEEEKKLLDQQLDQELVKRDEQLGMKKEQLLELPEQQEGHLKHLEQQEGQLKHPEQQEGQLELPEQQEGQLELPEQQEGQLELPEQQEGQLELPEQQEGQLELPEQQEGQLELPQQQEGQLELSEQQEGQLELSEQQEGQLKHLEHQEGQLEVPEEQMGQLKYLEQQEGQLKHLDQQEKQPELPEQQMGQLKHLEQQEGQPKHLEQQEGQLEQLEEQEGQLKHLEQQEGQLEHLEHQEGQLGLPEQQVLQLKQLEKQQGQPKHLEEEEGQLKHLVQQEGQLKHLVQQEGQLEQQERQVEHLEQQVGQLKHLEEQEGQLKHLEQQQGQLEVPEQQVGQPKNLEQEEKQLELPEQQEGQVKHLEKQEAQLELPEQQVGQPKHLEQQEKHLEHPEQQDGQLKHLEQQEGQLKDLEQQKGQLEQPVFAPAPGQVQDIQPALPTKGEVLLPVEHQQQKQEVQWPPKHK | – | – | – | – | – | – | – | – | – | – | – | binds

— patent publication US20030072795A1 (US Dept. of Health and Human Services, published 2003)
